Measurements reported in patent publication US20160152995A1, “METHODS AND COMPOSITIONS TO IMPROVE THE SPREAD OF CHEMICAL SIGNALS IN PLANTS” (PIONEER HI-BRED INTERNATIONAL, INC., priority 2013, published 2016).

Experiments:
[1] = test system: β-gal background activity; assay: First and second round library screen (L1, L2) for induction by sulfonylurea ligands, β-gal colony assay; type: cell-based, E. coli; conditions: for Inducer preference: β-gal colony assay, L2 library screened with each ligand at 2 ppm, numbers are the patent's inducer ligand numbers, atc for wt
Description: The original library was designed to thifensulfuron, but once induction activity was established with other SU compounds having potentially better soil and in planta stability properties than the original ligand, the evolution process was re-directed towards these alternative ligands. Of particular interest were herbicides metsulfuron, sulfometuron, ethametsulfuron and chlorsulfuron. For this objective, parental clones L1-9, -22, -29 and -44 were chosen for further shuffling. Clone L1-9 has strong activity on both ethametsulfuron and chlorsulfuron; clone L1-22 has strong sulfometuron activity; clone L1-29 has moderate metsulfuron activity; and clone L1-44 has moderate activity on metsulfuron, ethametsulfuron and chlorsulfuron. (Data not shown.). No clones found in the initial screen were exceptionally reactive to metsulfuron. These four clones were also chosen due to their relatively strong repressor activity, showing low β-gal background activity without inducer. Strong repressor activity is important for establishing a system which is both highly sensitive to the presence of inducer, and tightly off in the absence of inducer.
Based on the sequence information from parental clones L1-9, -22, -29 and -44, two second round libraries were designed, constructed and screened. The first library, L2, consisted of a ‘family’ shuffle whereby the amino acid diversity between the selected parental clones was varied using synthetic assembly of oligonucleotides to find clones improved in responsiveness to any of the four new target ligands.
The L2 oligonucleotides were assembled, cloned and screened as per the protocol described for library L1 except that each ligand was tested at 2 ppm to increase the stringency of the assay, which is a 10-fold reduction from 1st round library screening concentration.

[2] = test system: E. coli assay strain Km3; type: cell-based
Summary of the method: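 Clones in KM3 replica-stamped onto M9 X-gal assay plates with no inducer, 0.2 ppm or 2.0 ppm chlorsulfuron and incubated ~48 h at 30° C. Induction scored as blue colony colour, with colour intensity measured from digital plate images at several time points.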

[3] = test system: E. coli assay strain Km3; assay: Liquid B-galactosidase assays of chlorsulfuron repressor hits (induction and repression)
Procedure: In order to create new diversity for shuffling the top clone from CsL3 was subjected to error prone PCR mutagenesis using Mutazyme (Stratagene). The mutated PCR product encoding the CsR ligand binding domain was inserted into library expression vector pVER7334 as a Sac1 to Asc1 fragment, transformed into library strain Km3 and plated onto LB+40 ug/ml Kanamycin and 50 ug/ml Carbenecillin. Approximately 10,000 colonies were then replica plated onto M9 Xgal assay medium +/−20 ppb Cs. Putative hits were then re-arrayed and replica plated onto the same assay medium. Performance was gauged by the level of blue colony color after 24 hrs incubation on inducer (induction) and 72 hrs incubation without inducer (repression). The top hits were then subjected to liquid B-galactosidase assays for quantitative assessment (Table 21).
Seventh round library CsL4.2 was designed based on the best diversity from CsL3 and CsL3-MTZ library screens (Table 14). The library was assembled with oligonucleotides shown below in Table 22. The first and last primers were used as rescue primers. CsL4.2 included a C-terminal 6×His-tag extension to facilitate protein purification. The library was assembled and cloned into vector pVER7334 Sac1 to Asc1, transformed into library assay strain Km3 and plated onto LB+40 ug/m1 Kanamycin and 50 ug/ml carbenecillin. Approximately 8,000 colonies were re-arrayed into 384-well format and replica plated onto M9 Xgal assay medium +/−2 ppb Cs. Putative hits were re-arrayed in 96-well format onto the same media for re-testing. Confirmed hits were then tested for induction and repression aspects in liquid culture using B-galactosidase assays.
Mutagenesis reactions were transformed into E. coli assay strain Km3 and plated onto LB+50 ug/ml Carbenecillin. Colonies were then re-arrayed into 384 well format and replica plated onto M9 Xgal assay medium +/−5 ppb Chlorsulfuron. Putative hits were then re-arrayed and analyzed by B-galactosidase assays relative to the parent clones (FIG. 10).

[4] = library L1 initial screen, data not shown

B1: clone L1-44: SuR polypeptide, SEQ ID NO:13 (protein)
chain: MGSRLDKSKVINSALELLNEVGIEGLTTRKLAQKLGVEQPTLYWHVKNKRALLDALAIEMLDRHATHFCPLEGESWQDFLRNNAKSYRCALLSHRDGAKVYLGTAVTEKQYETAENQLAFLCQQGFSLENALYAVKAVAGFTLGCVLWDQESQVAKEERETPTTASMPPLLRQAVELADHQGAEPAFLFGLELIICGLEKQLKCESGS
modifications: Sulfonylurea responsive repressor
- induction activity on chlorsulfuron [1, 4]: moderate
- induction activity on ethametsulfuron [1, 4]: moderate
- induction activity on metsulfuron [1, 4]: moderate
- Inducer preference [1]: 9 (weak)

B2: clone L1-22: SuR polypeptide, SEQ ID NO:7 (protein)
chain: MGSRLDKSKVINSALELLNEVGIEGLTTRKLAQKLGVEQPTLYWHVKNKRALLDALAIEMMDRHHTHFCPLEGESWQDFLRNTAKSYRCALLSHRDGAKVCLGTAITEKQYETKENNLAFLCQQGFSLENALYARQAVRVFTLGCVLFDQEMQVAKEERETPTTDSMPPLLRQASELLDHQGAEPAFLFGLELIICGLEKQLKSESGS
modifications: Sulfonylurea responsive repressor
- induction activity on sulfometuron [1, 4]: strong
- Inducer preference [1]: 3

B3: clone L1-29: SuR polypeptide, SEQ ID NO:10 (protein)
chain: MGSRLDKSKVINSALELLNEVGIEGLTTRKLAQKLGVEQPTLYWHVKNKRALLDALAIEMMDRHQTHFCPLEGESWQDFLRNTAKSMRCALLSHRDGAKVWLGTRWTEKQYETPENMLAFLCQQGFSLENALYAWSAVCNFTLGCVLSDQERQVAKEERETPTTDSMPPLLRQAWELSDHQGAEPAFLFGLELIICGLEKQLKCESGS
modifications: Sulfonylurea responsive repressor
- induction activity on metsulfuron [1, 4]: moderate
- Inducer preference [1]: 9 (weak)

B4: L8-3F01: library L8 chlorsulfuron repressor hit, parent for saturation mutagenesis (protein)
chain: MARLDKSKVINSALELLNEVGIEGLTTRKLAQKLGVEQPTLYWHVKNKRALLDALAIEMMDRHQTHYLPLEGESWQDFLRNNAKSCRRALLSHRDGAKVCLGTRWTEQQYETAENMLAFLTQQGFSLENALYAVSAVRVFTLGAVLFDQESQVAKEERETPTTDSMPPLLRQAWELKDHQGAEPAFLFGLELIIAGLEKQLKRESGS
modifications: Sulfonylurea responsive repressor
notes: library L8 chlorsulfuron repressor hit, parent for saturation mutagenesis
- F. IND = fold induction (IND/REP) (Colony Assay Results) ([2]; CsL3 hits, 20 ppb Cs vs no inducer): 2.5
- REP = repression in absence of inducer (Colony Assay Results) ([2]; CsL3 hits, M9 Xgal colony color, 0 ppb Cs): 0.7
- IND = induction with 20 ppb CS (Colony Assay Results) ([2]; CsL3 hits, M9 Xgal colony color, 20 ppb Cs): 1.6
- IND = induction with 200 ppb Cs at 24 hrs (blue colony color intensity thru ImageJ analysis) ([2]; library L8 hits, M9 Xgal colony assay, 200 ppb Chlorsulfuron, 24 hrs): 1.7
- F. IND = fold induction: induction with 200 ppb Cs at 24 hrs/repression at 48 hrs ([2]; library L8 hits, M9 Xgal colony assay, ratio IND (200 ppb Cs, 24 hrs) / REP (48 hrs)): 3.0
- REP = repression measured without inducer after 48 hrs (blue colony color intensity thru ImageJ analysis) ([2]; library L8 hits, M9 Xgal colony assay, without inducer, 48 hrs): 0.6
- F. IND = fold induction (IND/REP) (B-galactosidase assay) ([3]; CsL3-MTZ hits, 20 ppb Cs vs no inducer): 1
- IND = induction with 20 ppb CS (B-galactosidase assay) ([3]; CsL3-MTZ hits, liquid B-galactosidase assay, 20 ppb Cs): 8
- REP = repression in absence of inducer (B-galactosidase assay) ([3]; CsL3-MTZ hits, liquid B-galactosidase assay, no inducer): 7
- F. IND = fold induction (IND/REP) (B-galactosidase) ([3]; CsL4.2 hits, 20 ppb Cs vs no inducer): 2.0
- IND = induction with 20 ppb CS (B-galactosidase) ([3]; CsL4.2 hits, liquid B-galactosidase assay, 20 ppb Cs): 0.9
- REP = repression in absence of inducer (B-galactosidase) ([3]; CsL4.2 hits, liquid B-galactosidase assay, no inducer): 0.4
